{
  "source": "patent US20060253917A1",
  "about": "(published 2006)",
  "binders": {"B1": {"name": "OsSGT1 aa 200-368 (other)", "chain": "QMLSVSIEVPGEEPYHFQPRLFSKIIPEKSRYQVLSTKVEIRLAKAEQITWTSLDYDKKPKAVPQKIIPPAESAQRPSYPSSKSKKDWDKLEAEVKKEEKEEKLEGDAALNKFFRDIYSDADEDMRRAMMKSFVESNGTVLSTNWKDVGSKKVEGSPPDGMELKKWEY", "notes": "bait, Gal4 DBD fusion; also called PN20285"}, "B2": {"name": "PN20696 (OsERP) aa 54-144 (other)", "chain": "ETFMFSVTHNATELIIKLMDSDSGTDDDFVGEATISLEAIYTEGSIPPTVYNVVKEEEYRGEIKVGLTFTPEDDRDRGLSEEDIGGWKQSS", "notes": "prey, AD fusion; also called Elicitor responsive protein"}, "B3": {"name": "OsERP (PN20696) aa 50-145 (other)", "chain": "PEWNETFMFSVTHNATELIIKLMDSDSGTDDDFVGEATISLEAIYTEGSIPPTVYNVVKEEEYRGEIKVGLTFTPEDDRDRGLSEEDIGGWKQSS", "notes": "bait, Gal4 DBD fusion; also called Elicitor responsive protein"}, "B4": {"name": "OsCRTC aa 250-425 (other)", "chain": "PKEIPDPDAKKPEAGADEEDGEWTAPTIRNPEYKGPWKQKKIKNPNYQGKWKPPMIATPDFQDDPYIYAFDSLKSIGIELWQVKSGTLFDNILITDDAALAKTFAEETWAKHKDAEKAAFDEAEKKKEEEEAAKAGEDDDDLDDEDAEDEDKADEKADSDAEDGKDSDDEKHDEL", "notes": "bait, Gal4 DBD fusion; also called PN20544"}, "B5": {"name": "OsPN22824 aa 301-500 (other)", "chain": "DGEEVSCGIKAALAEKELEEEETKKMIEEESIDATAIDSGEKENPEVAELKAKLMAKDMEVAILTADNAELKKQVGEAAEAAKKAEEEAAAKASLVEQDLKERAAREARMGEQLRASEAARETLEAEMRRLRVQTEQWRKAAEAAPPVIGGDAHFVGHNGNGWGSPATMPDDCDDEGFGGKRKGAGIRMLGDLWKKKGSK", "notes": "prey, AD fusion"}},
  "key": {"PN24061 aa 34-236": {"molecular_target": "T1, PN24061 aa 34-236 (Oryza sativa, UniProt A2XLV9 34-236)", "T1 construct": "prey, AD fusion; also called Auxin induced protein-like", "T1 sequence": "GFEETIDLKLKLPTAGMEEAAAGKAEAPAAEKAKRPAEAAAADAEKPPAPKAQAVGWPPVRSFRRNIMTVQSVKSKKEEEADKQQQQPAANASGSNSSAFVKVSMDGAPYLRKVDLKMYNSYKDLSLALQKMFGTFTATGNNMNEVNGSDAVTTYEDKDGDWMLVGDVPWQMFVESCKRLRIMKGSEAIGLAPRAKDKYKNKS", "test": "Y2H; output trait library", "outline": "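Protein interactions were tested in an automated, high-throughput yeast two-hybrid screen supplied by Myriad Genetics Inc. Fragments of rice proteins, defined by amino-acid range, served as bait against rice prey clone libraries. Interacting prey clones were retrieved from the output trait library. The sequences encoding the retrieved fragments were compared by BLAST analysis against databases to identify the full-length genes. Each value records whether an interaction was detected.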"}, "OsSGT1 aa 200-368": {"molecular_target": "B1", "test": "Y2H; input trait library", "outline": "(§1)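 Myriad Genetics Inc. (Salt Lake City, Utah) supplied the automated, high-throughput yeast two-hybrid assay used to detect protein-protein interactions. A bait clone encoding a defined amino-acid fragment of a rice protein was screened against a rice prey library, either the input trait or the output trait library. To identify the interacting proteins, prey clones were retrieved and their encoding sequences were compared against databases by BLAST.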"}, "PN20674 aa 64-263": {"molecular_target": "T2, PN20674 aa 64-263 (Oryza sativa, UniProt Q6AVA8 64-263)", "T2 construct": "prey, AD fusion; also called Pyruvate orthophosphate dikinase-like", "T2 sequence": "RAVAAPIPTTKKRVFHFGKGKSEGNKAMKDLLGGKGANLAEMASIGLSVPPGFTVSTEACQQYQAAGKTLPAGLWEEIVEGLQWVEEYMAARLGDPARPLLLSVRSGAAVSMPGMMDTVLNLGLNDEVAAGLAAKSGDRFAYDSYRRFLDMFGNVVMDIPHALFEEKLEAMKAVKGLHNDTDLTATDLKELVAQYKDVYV", "test": "Y2H; input trait library", "outline": "as §1"}, "PN20674 aa 71-298": {"molecular_target": "T3, PN20674 aa 71-298 (Oryza sativa, UniProt Q6AVA8 71-298)", "T3 construct": "prey, AD fusion; also called Pyruvate orthophosphate dikinase-like", "T3 sequence": "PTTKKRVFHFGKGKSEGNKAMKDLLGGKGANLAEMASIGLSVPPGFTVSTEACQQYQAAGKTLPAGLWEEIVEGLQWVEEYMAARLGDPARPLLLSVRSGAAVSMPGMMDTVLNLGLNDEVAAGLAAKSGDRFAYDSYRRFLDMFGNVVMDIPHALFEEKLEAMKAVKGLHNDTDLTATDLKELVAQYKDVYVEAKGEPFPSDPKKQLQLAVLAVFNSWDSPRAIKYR", "test": "Y2H; input trait library", "outline": "as §1"}, "OsSSS aa 68-270": {"molecular_target": "T4, OsSSS aa 68-270 (Oryza sativa, UniProt A2Y9M4 68-270)", "T4 construct": "prey, AD fusion; also called PN19701; Soluble Starch Synthase", "T4 sequence": "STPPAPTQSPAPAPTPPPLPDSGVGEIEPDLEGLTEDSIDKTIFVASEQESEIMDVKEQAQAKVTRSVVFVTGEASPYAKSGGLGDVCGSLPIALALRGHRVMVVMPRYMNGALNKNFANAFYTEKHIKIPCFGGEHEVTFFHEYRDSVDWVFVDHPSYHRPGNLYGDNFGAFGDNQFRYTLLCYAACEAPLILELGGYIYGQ", "test": "Y2H; input trait library", "outline": "as §1"}, "OsSSS aa 97-263": {"molecular_target": "T5, OsSSS aa 97-263 (Oryza sativa, UniProt A2Y9M4 97-263)", "T5 construct": "prey, AD fusion; also called PN19701", "T5 sequence": "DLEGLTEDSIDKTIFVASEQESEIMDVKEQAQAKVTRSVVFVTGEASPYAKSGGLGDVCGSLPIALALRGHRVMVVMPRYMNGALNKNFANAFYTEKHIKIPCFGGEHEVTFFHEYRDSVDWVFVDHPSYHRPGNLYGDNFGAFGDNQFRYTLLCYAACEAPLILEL", "test": "Y2H; output trait library", "outline": "as §1"}, "OsRACD aa 1-198": {"molecular_target": "T6, OsRACD aa 1-198 (Oryza sativa, UniProt Q6EP31 1-197)", "T6 construct": "bait, Gal4 DBD fusion; also called PN19695", "T6 sequence (Q6EP31 whole entry, the tested form may be a part)": "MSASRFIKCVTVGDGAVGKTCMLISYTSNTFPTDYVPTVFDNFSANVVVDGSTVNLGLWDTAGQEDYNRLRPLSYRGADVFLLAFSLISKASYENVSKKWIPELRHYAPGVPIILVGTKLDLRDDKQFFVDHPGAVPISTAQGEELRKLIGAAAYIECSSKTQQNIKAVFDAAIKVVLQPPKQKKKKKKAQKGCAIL", "test": "Y2H; input trait library", "outline": "as §1"}},
  "data": [
    {"binder": "B1", "values": [
      {"measurement": "binding result", "setting": "PN24061 aa 34-236", "value": "binds"}
    ]},
    {"binder": "B2", "values": [
      {"measurement": "binding result", "setting": "OsSGT1 aa 200-368", "value": "binds"}
    ]},
    {"binder": "B3", "values": [
      {"measurement": "binding result", "setting": "PN20674 aa 64-263", "value": "binds"},
      {"measurement": "binding result", "setting": "PN20674 aa 71-298", "value": "binds"}
    ]},
    {"binder": "B4", "values": [
      {"measurement": "binding result", "setting": "OsSSS aa 68-270", "value": "binds"},
      {"measurement": "binding result", "setting": "OsSSS aa 97-263", "value": "binds"}
    ]},
    {"binder": "B5", "values": [
      {"measurement": "binding result", "setting": "OsRACD aa 1-198", "value": "binds"}
    ]}
  ]
}
